Columns and labels:
[1] = target: T1, human MCAM (antigen of the BLI kinetics in Example 7) (human, UniProt P43121 24-559, limits assumed); assay: BLI, ForteBio Octet QK, apparent kd
T1 chain: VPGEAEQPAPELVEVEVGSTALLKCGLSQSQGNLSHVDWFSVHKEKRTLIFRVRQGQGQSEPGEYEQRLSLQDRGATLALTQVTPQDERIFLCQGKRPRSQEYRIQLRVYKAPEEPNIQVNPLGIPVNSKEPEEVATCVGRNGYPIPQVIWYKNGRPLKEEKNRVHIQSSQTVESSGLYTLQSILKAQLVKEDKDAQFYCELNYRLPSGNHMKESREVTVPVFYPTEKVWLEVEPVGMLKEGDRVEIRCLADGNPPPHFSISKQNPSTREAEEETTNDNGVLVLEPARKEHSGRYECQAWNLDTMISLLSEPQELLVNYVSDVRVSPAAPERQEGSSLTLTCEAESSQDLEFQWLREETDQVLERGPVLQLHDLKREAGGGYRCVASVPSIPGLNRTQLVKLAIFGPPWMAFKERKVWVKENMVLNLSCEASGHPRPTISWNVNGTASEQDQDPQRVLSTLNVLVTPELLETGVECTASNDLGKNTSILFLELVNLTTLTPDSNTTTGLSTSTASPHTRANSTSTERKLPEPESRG
Excerpt: Apparent ka, apparent kd and apparent KD are binding kinetic parameters obtained using ForteBio assay formats.

[2] = target: T2, human MCAM C320A mutant (shotgun mutagenesis library, on BHK cells) (human, UniProt P43121 24-646); assay: shotgun mutagenesis library, immunofluorescence on BHK cells, triplicate, background-subtracted and normalized to WT
T2 chain: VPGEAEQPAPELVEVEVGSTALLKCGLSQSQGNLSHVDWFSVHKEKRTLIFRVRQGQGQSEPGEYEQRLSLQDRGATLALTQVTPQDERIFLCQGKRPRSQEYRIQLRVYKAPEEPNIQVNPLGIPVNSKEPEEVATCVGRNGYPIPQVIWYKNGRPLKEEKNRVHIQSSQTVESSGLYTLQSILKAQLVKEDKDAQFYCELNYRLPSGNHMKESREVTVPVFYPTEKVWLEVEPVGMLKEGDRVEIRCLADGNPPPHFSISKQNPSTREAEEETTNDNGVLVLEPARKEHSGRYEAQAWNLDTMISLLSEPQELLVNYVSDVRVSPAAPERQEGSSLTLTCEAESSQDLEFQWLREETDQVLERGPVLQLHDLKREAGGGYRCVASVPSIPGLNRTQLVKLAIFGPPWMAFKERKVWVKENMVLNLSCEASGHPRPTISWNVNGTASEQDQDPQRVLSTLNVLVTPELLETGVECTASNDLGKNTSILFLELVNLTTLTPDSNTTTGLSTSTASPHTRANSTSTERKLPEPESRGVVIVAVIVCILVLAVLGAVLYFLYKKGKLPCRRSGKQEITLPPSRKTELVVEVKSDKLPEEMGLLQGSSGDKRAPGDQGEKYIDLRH
Procedure: (§1) The mutation library was assayed for surface expression (mouse sera binding) and monoclonal antibody binding, in triplicate. Each raw data point was background-subtracted and normalized to the wild type MCAM reactivity values. The mean monoclonal antibody binding value for each clone is plotted as a function of its mean surface expression value (FIG. 1, gray diamonds). Thresholds of <30% monoclonal antibody reactivity and >50% mouse sera binding were applied to identify clones (FIG. 1, black diamonds) that were negative for monoclonal antibody binding but positive for surface expression.
(§2) Residues involved in antibody binding were identified as those that were negative for monoclonal antibody binding (<30% WT) but positive for surface expression (>50% WT) (Table 4). The mean reactivity (and standard deviation) were determined for each critical residue.

[3] = target: T3, human MCAM V340A mutant (shotgun mutagenesis library, on BHK cells) (human, UniProt P43121 24-646); assay: as above
T3 chain: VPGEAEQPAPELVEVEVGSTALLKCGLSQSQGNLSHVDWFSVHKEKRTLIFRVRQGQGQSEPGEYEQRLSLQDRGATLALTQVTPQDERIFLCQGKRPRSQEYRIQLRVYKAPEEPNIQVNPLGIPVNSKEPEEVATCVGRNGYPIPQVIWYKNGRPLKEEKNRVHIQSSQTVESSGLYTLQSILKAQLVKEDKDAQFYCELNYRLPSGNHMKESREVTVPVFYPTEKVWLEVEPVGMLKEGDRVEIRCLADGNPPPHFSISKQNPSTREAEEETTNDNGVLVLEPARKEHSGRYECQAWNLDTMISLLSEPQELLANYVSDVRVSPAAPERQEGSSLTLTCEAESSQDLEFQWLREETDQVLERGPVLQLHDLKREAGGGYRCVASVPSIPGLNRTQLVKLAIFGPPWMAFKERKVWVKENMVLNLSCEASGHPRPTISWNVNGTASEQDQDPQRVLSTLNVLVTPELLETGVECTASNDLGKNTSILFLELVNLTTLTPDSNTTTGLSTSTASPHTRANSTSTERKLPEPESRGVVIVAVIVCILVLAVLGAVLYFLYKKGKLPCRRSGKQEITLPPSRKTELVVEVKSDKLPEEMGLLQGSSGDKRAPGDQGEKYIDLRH
Procedure: as §1, §2

[4] = target: T4, human MCAM W377A mutant (shotgun mutagenesis library, on BHK cells) (human, UniProt P43121 24-646); assay: as above
T4 chain: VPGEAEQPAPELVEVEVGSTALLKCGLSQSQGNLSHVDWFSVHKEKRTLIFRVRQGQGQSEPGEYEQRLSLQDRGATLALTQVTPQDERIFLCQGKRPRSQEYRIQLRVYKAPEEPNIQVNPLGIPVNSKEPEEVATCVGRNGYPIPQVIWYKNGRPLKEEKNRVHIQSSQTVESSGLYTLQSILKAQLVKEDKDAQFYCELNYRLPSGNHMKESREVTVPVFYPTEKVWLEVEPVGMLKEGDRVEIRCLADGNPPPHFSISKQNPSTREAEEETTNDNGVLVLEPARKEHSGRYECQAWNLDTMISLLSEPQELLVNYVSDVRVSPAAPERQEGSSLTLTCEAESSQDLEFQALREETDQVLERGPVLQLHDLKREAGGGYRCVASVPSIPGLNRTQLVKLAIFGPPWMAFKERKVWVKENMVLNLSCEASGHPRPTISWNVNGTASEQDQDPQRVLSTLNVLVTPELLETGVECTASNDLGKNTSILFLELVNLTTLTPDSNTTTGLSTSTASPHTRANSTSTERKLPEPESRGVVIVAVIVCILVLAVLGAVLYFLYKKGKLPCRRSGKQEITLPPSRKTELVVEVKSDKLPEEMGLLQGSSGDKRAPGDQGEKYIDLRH
Procedure: as §1, §2

B1: mouse anti-human MCAM monoclonal antibody clone 1749.1.3 (antibody, V domains shown)
VH: DVKLVESGGDLVKPGGSLKLSCAASGFTFSSYIMSWVRQTPEKRLEWVATISSGGSSTYYPDSVKGRFTISRDNAKNTLYLQMSSLKSEDTAMYYCTRDDDYDVKVFAYWGQGTLVTVSA
VL: DIVMSQSPSSLAVSAGEKVTMNCKSSRSLLNSRIRKNYLAWYQQKPGQSPKLLIYWASTRESGVPDRFTGSGSGTDFTLTISSVQAEDLAVYYCKQSYNLLTFGAGTKLELK
notes: Mouse hybridoma monoclonal antibody; also called m1749
- koff [1]: 0.000402 s⁻¹
- mean reactivity (% of wild type MCAM), standard deviation in brackets [2]: 9.3 % of WT
- mean reactivity (% of wild type MCAM), standard deviation in brackets [3]: 8.7 % of WT
- mean reactivity (% of wild type MCAM), standard deviation in brackets [4]: 13.7 % of WT
